In patent US20260116951A1 (DUCENTIS BIOTHERAPEUTICS, published 2026):

What was measured:
[1] = target: T1, Recombinant Human CD200R, His-tagged (Creative Biomart CD200R1-320H) (human, UniProt Q8TD46 27-266); test: SPR, CD200R flowed over immobilized CD200-Fc, 25 C, 1:1 fit, mean of 2 experiments with standard deviation
T1 construct: Bought; also called human CD200 receptor; not shown: His tag
T1 sequence (looked up): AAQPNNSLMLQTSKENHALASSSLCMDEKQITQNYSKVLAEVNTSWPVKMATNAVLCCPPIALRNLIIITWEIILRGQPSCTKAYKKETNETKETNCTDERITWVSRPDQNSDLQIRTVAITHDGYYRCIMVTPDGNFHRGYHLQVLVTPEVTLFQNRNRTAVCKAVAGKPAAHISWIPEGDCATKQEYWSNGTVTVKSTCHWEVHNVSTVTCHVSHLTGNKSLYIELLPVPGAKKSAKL
Description: (§1) For human CD200 constructs: anti-human Fc (GE Healthcare) was covalently immobilized on a BIAcore CM5 sensor chip (Cytiva, BR100530) by amine coupling using a Cytiva kit (BR100839) following the manufacturer's instructions, targeting immobilization of 8,000-11,000 RU. CD200-Fc proteins were diluted to 0.5 μg/mL to 4 μg/mL in running Buffer (1×HBS-EP+pH7.4 (Cytiva BR100669), HEPES Buffered Saline pH 7.4 containing 3 mM EDTA and 0.05% v/v Surfactant P20) and flowed for 25 to 100 seconds at 10 μL/min over the immobilized Anti-Human IgG Fc, with a stabilization time of 60 seconds. Between 35 and 250 RUs of CD200-Fc were captured, with higher RUs used for cynomolgus CD200R binding experiments. […] Analysis temperature was 25° C. This was followed by regeneration of the surface with 30-90 second pulse of 3M MgCl₂ flowed at 30 L/min flow rate followed by stabilization of the surface with 60 second flow of running buffer.
(§2) Curves obtained were fitted to 1:1 Langmuir binding model by setting Rmax and RI as local parameters. Rate equations using standard parameters (e.g. ligand concentration, time) were used for iterative curve fitting. […] Means of 2 experiments carried out on the same day are shown with standard deviation. Residue numbering for CD200 proteins refers to the pre-protein, containing a signal peptide which is cleaved during insertion into the endoplasmic reticulum.

Human PBMCs = target: T2, Human PBMCs; test: Flow cytometry, % binding on human PBMCs gated on live cells, 1 hour at 37 C, anti-human secondary antibody; the target protein on the cells is not named
T2 construct: No receptor was assigned; also called human PBMCs, gated on live cells
Description: PBMC cells were re-suspended with a density of 0.1 million cells per assay point, with 50 μL FACS buffer (1×PBS+2% FBS). Dilutions of huCD200-Fc in 50 μL were added, starting at 10 μg/mL with 3-fold dilutions up to 10 concentrations with FACS buffer, and incubated for 1-hour at 37° C. At the end of each time point, cells were collected and washed (addition of 200 μL FACS buffer and centrifugation at 1400 RPM). 10 μg/mL of anti-human secondary antibody (Abcam Ab98596) was added together with excess Fc block (Innovex Biosciences no. NB309), and incubated for 30 minutes at 4° C. Cells were washed post incubation and stained to check viability (1 μL dye per million cells per mL 1×PBS, ThermoFisher C34557A) for 20 minutes at 4° C. Cells were washed and fixed with Fixation buffer (100 μL per test, BD Sciences 554655) at 4° C. for 20 minutes. Post incubation, cells were washed and the pellet was re-suspended in FACS buffer (100 μL per test) for data acquisition on the flow cytometer.

[2] = target: T1, Recombinant Human CD200R, His-tagged …; test: SPR (BIAcore)
Description: as §1, with “This was followed by regeneration of the surface with 30-90 second pulse of 3M MgCl₂ flowed at 30 L/min flow rate followed by stabilization of the surface with 60 second flow of running buffer.” left out
For mouse CD200 constructs, muCD200R-Fc (Creative Biomart CD200R1-458M) diluted to 1 μg/mL in running buffer was flowed over the immobilized Anti-Human IgG Fc, with CD200 monomers serially diluted and flowed over captured CD200R. […] Data analysis: experimental sensorgrams were analyzed in BIAevaluation software (GE Healthcare). […] Closeness of fit was determined by algorithms provided by the manufacturer in the BIAevaluation software, and data accepted if the Chi² value was less than 10% of Rₘₐₓ, and the U value was less than or equal to 15.

[3] = target: T3, Recombinant Cyno CD200R, His-tagged (Creative Biomart CD200R1-3483C) (cynomolgus monkey); test: SPR (BIAcore), DS-118 captured (0.5 ug/mL), CynoCD200R1 flowed at 1000 nM to 62.5 nM, 25 C, 1:1 Binding model, run 1
T3 construct: Bought; also called cynomolgus CD200R1; cynomolgus CD200R
Description: as §1
For mouse CD200 constructs, muCD200R-Fc (Creative Biomart CD200R1-458M) diluted to 1 μg/mL in running buffer was flowed over the immobilized Anti-Human IgG Fc, with CD200 monomers serially diluted and flowed over captured CD200R. Other details were as above. Data analysis: experimental sensorgrams were analyzed in BIAevaluation software (GE Healthcare). The curves obtained were fitted to 1:1 Langmuir binding model by setting Rmax and RI as local parameters. Rate equations using standard parameters (e.g. ligand concentration, time) were used for iterative curve fitting. Closeness of fit was determined by algorithms provided by the manufacturer in the BIAevaluation software, and data accepted if the Chi² value was less than 10% of Rₘₐₓ, and the U value was less than or equal to 15.

[4] = target: T1, Recombinant Human CD200R, His-tagged …; test: SPR
From the text: as §2

[5] = target: T4, Mouse CD200R protein (Creative Biomart CD200R1-3280M) (mouse, UniProt Q9ES57 26-238); test: SPR (BIAcore)
T4 construct: also called Murine CD200R1; murine CD200R
T4 sequence (looked up): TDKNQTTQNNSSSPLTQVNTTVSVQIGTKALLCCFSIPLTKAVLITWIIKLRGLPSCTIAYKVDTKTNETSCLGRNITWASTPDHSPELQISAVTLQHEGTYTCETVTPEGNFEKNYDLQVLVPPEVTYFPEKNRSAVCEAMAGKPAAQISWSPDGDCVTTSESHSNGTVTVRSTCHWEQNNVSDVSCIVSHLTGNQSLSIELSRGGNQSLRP

Human CD200R1L = target: T5, Human CD200R1L (human, UniProt Q6Q8B3 24-239, limits assumed); test: SPR (BIAcore)
T5 construct: nothing is said of the reagent
T5 sequence (looked up): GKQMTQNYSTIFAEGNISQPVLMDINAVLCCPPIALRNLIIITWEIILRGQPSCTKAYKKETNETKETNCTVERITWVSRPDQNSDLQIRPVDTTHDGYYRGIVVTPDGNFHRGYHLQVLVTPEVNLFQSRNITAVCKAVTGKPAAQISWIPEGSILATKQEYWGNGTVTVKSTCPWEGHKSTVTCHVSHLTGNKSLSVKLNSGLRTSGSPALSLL

EC50 (Human PBMCs): 0.29 µg/mL
Kd [3]: 207 nM
koff [3]: 0.0164 s⁻¹
kon [3]: 79200 M⁻¹ s⁻¹
binding result [5]: no binding
binding result (Human CD200R1L): no binding
B1: DS-118 (mutated human CD200-Fc fusion protein, K130Y, I131Y, IgG4 S228P Fc) (Fc fusion)
chain: QVQVVTQDEREQLYTPASLKCSLQNAQEALIVTWQKKKAVSPENMVTFSENHGVVIQPAYKDKINITQLGLQNSTITFWNITLEDEGCYMCLFNTFGFGYYSGTACLTVYVQPIVSLHYKFSEDHLNITCSATARPAPMVFWKVPRSGIENSTVTLSHPNGTTSVTSILHIKDPKNQVGKEVICQVLHLGTVTDFKQTVNKGPPCPPCPAPEFLGGPSVFLFPPKPKDTLMISRTPEVTCVVVDVSQEDPEVQFNWYVDGVEVHNAKTKPREEQFNSTYRVVSVLTVLHQDWLNGKEYKCKVSNKGLPSSIEKTISKAKGQPREPQVYTLPPSQEEMTKNQVSLTCLVKGFYPSDIAVEWESNGQPENNYKTTPPVLDSDGSFFLYSRLTVDKSRWQEGNVFSCSVMHEALHNHYTQKSLSLSLGK
notes: also called mutated CD200-Fc; mutant CD200-Fc
Kd [1]: 1.3 nM
fold greater affinity than wild-type CD200-Fc (DS-155) [2]: ~137 fold
fold increase in affinity from wild type [4]: > 130 fold
